Measured values as given in US20190085055A1.
pKd: −log10 of the molar value.

What was measured:
D3H44 light chain F98A [1] = test: LCCA (SPR), competitor L2 WT
D3H44 light chain F98L [2] = test: LCCA (SPR), competitor L1 WT
D3H44 light chain F98W [3] = test: LCCA (SPR), competitor L1 F98L
[4] = target: D3H44 light chain, wild type; test: LCCA (SPR), competitor L2 F98L
D3H44 light chain F98L [5] = test: LCCA (SPR), competitor L2 F98W
D3H44 light chain F98A [6] = test: LCCA (SPR), competitor L2 F98W
D3H44 light chain F98W [7] = test: LCCA (SPR), competitor L1 F98A
[8] = target: D3H44 light chain, wild type; test: LCCA (SPR), competitor L1 F98A
[9] = target: D3H44 light chain V133A_Q160K_T178R; test: LCCA (SPR), competitor L1 Q124E_V133W_Q160E_T180E
[10] = target: D3H44 light chain Q124E_V133W_Q160E_T180E; test: LCCA (SPR), competitor L2 V133A_Q160K_T178R
[11] = target: D3H44 light chain Q124E_V133W_Q160E_T180E; test: LCCA: H1 co-expressed with L1 and L2, SPR read-out of light chain tags; competing chain L2
[12] = target: D3H44 light chain V133A_Q160K_T178R; test: LCCA: H1 co-expressed with L1 and L2, SPR read-out of light chain tags; competing chain L1
D3H44 light chain S176L [13] = test: LCCA (SPR), competitor L1 V133S
D3H44 light chain V133S [14] = test: LCCA (SPR), competitor L2 S176L
D3H44 light chain V133S [15] = test: LCCA: H1 co-expressed with L1 and L2, SPR read-out of light chain tags; competing chain L2
D3H44 light chain S176L [16] = test: LCCA: H1 co-expressed with L1 and L2, SPR read-out of light chain tags; competing chain L1
D3H44 light chain S176L [17] = test: LCCA (SPR), competitor L2 WT
D3H44 light chain S176L [18] = test: LCCA: H2 co-expressed with L1 and L2, SPR read-out of light chain tags; competing chain L1
[19] = target: D3H44 light chain, wild type; test: LCCA (SPR), competitor L1 S176L
D3H44 light chain V133S [20] = test: LCCA: H2 co-expressed with L1 and L2, SPR read-out of light chain tags; competing chain L2
[21] = target: D3H44 light chain Q124E_Q160E_T178D; test: LCCA: H1 co-expressed with L1 and L2, SPR read-out of light chain tags; competing chain L2
[22] = target: D3H44 light chain Q124R_Q160K_T178R; test: LCCA: H1 co-expressed with L1 and L2, SPR read-out of light chain tags; competing chain L1
[23] = target: tissue factor extracellular domains (human) (UniProt P13726); test: SPR, median of repeats
[24] = target: tissue factor extracellular domains (human) (UniProt P13726); test: SPR, TF immobilised, purified Fab as analyte, 1:1 model
[25] = target: D3H44 light chain Q124R_Q160K_T178R; test: LCCA: H2 co-expressed with L1 and L2, SPR read-out of light chain tags; competing chain L1
[26] = target: D3H44 light chain Q124E_Q160E_T178D; test: LCCA: H2 co-expressed with L1 and L2, SPR read-out of light chain tags; competing chain L2

D3H44 heavy chain (Fab format) V37I
H2 L1 of H2 L2:H2 L1 (screen) (D3H44 light chain F98A [1]): 28.7 | H1 L2 of H1 L1:H1 L2 (screen) (D3H44 light chain F98L [2]): 7.34 | H2 L2 of H2 L2:H2 L1 (screen) (D3H44 light chain F98W [3]): 65.7 | H1 L1 of H1 L1:H1 L2 (screen) [4]: 78.5 | H2 L1 of H2 L2:H2 L1 (screen) (D3H44 light chain F98L [5]): 21.7 | H2 L1 of H2 L2:H2 L1 (screen) (D3H44 light chain F98A [6]): 30.9 | H2 L2 of H2 L2:H2 L1 (screen) (D3H44 light chain F98W [7]): 66.5 | H2 L2 of H2 L2:H2 L1 (screen) [8]: 72.6

D3H44 heavy chain (Fab format) L143A_D144G_Q179R
H1 L2 of H1 L1:H1 L2 (screen) [9]: 0.4 | H1 L2 of H1 L1:H1 L2 (verification) [9]: 0.6 | H1 L1 of H1 L1:H1 L2 (screen) [10]: 97.4 | H1 L1 of H1 L1:H1 L2 (verification) [10]: 93.6 | H1 Readout (H1-L1) [11]: 104 | H1 Readout (H1-L2) [12]: 1

D3H44 heavy chain (Fab format) S188L_V190Y
H1 L2 of H1 L1:H1 L2 (screen) (D3H44 light chain S176L [13]): 7.72 | H1 L2 of H1 L1:H1 L2 (verification) (D3H44 light chain S176L [13]): 12.4 | H1 L1 of H1 L1:H1 L2 (screen) (D3H44 light chain V133S [14]): 90 | H1 L1 of H1 L1:H1 L2 (verification) (D3H44 light chain V133S [14]): 81.2 | H1 Readout (H1-L1) (D3H44 light chain V133S [15]): 83 | H1 Readout (H1-L2) (D3H44 light chain S176L [16]): 24

D3H44 heavy chain (Fab format) F174V_P175S_S188G
H1 L1 of H1 L1:H1 L2 (screen) (D3H44 light chain S176L [17]): 53.4 | H2 L2 of H2 L2:H2 L1 (screen) (D3H44 light chain S176L [13]): 81.1 | H2 L2 of H2 L2:H2 L1 (verification) (D3H44 light chain S176L [13]): 68.1 | H2 L1 of H2 L2:H2 L1 (screen) (D3H44 light chain V133S [14]): 1.44 | H2 L1 of H2 L2:H2 L1 (verification) (D3H44 light chain V133S [14]): 2.9 | H2 Readout (H2-L2) (D3H44 light chain S176L [18]): 98 | H1 L2 of H1 L1:H1 L2 (screen) [19]: 9.68 | H2 Readout (H2-L1) (D3H44 light chain V133S [20]): 1

D3H44 heavy chain (Fab format) D146G_S186R
H1 Readout (H1-L1) [21]: 84 | H1 Readout (H1-L2) [22]: 1

Wild-type anti-TF D3H44 Fab
pKd [23]: 10.22 | pKd [24]: 10.28

D3H44 heavy chain (Fab format) K145E_D146G_Q179D_S188L
H2 Readout (H2-L2) [25]: 74 | H2 Readout (H2-L1) [26]: 2
